Laboratory results reported in US20240352445A1 (ABWIZ BIO, published 2024).
Substitutions are numbered along the chain they refer to.

B1: SEQ ID NO 18 (antibody, V domains shown)
VH: EVQLVESGGGLVQPGGSLRLSCTVSGFSLSTYAMSWVRQAPGKGLEWIGVIASNADTYYASWAKGRFTISRDNSKNTLYLQMNSLRAEDTAVYYCARHPGSAGYGYAVYYAMDPWGQGTLVTVSS
VL: DIQMTQSPSSLSASVGDRVTITCKASEDIRYGLNWYQQKPGKAPKLLIYGGSYLRWGVPSRFSGSGSGTDYTLTISSLQPEDFATYYCQQGYRVPIRFGGGTKVEIK
notes: As m4; also called selected clone from LxC libraries; LxC clone
B2: SEQ ID NO 12 (antibody, V domains shown)
VH: B1 VH
VL: DIQMTQSPSSLSASVGDRVTITCQASQPIHYAINWYQQKPGKAPKLLIYGTSHRKMGVPSRFSGSGSGTDYTLTISSLQPEDFATYYCQQGYIVALKFGGGTKVEIK
notes: also called selected clone from LxC libraries; LxC clone
B3: SEQ ID NO 15 (antibody, V domains shown)
VH: B1 VH
VL: B2 VL with P28K, H53Y, R54L, K55G, M56G, Y71F, A95P, L96N, K97S
notes: As m4
B4: SEQ ID NO 16 (antibody, V domains shown)
VH: B1 VH
VL: B2 VL with P28D, I29V, H30K, H53S, K55G, M56E, I93V, A95S, L96I, K97F
notes: As m4
B5: SEQ ID NO 17 (antibody, V domains shown)
VH: B1 VH
VL: DIQMTQSPSSLSASVGDRVTITCQASQPIYYGINWYQQKPGKAPKLLIYGHTYRAWGVPSRFSGSGSGTDFTLTISSLQPEDFATYYCQQGYRVGLGFGGGTKVEIK
notes: As m4
B6: G10xA1 (antibody, V domains shown)
VH: EVQLVESGGGLVQPGESLRLSCKASGFTFPNQAMTWVRQAPGKGLEWIGVIASNADTYYASWAKGRFTISRDNSKNTLYLQMNSPRAEDTAVYYCARHPGSAGYGYALYYAMDPWGQGTLVTVSS
VL: DIQMTQSPSSLSASVGDRVTITCQASERVFYGIDWYQQKPGKAPKLLIYGASALWHGVPSRFSGSGSGTDYTLTISSLQPEDFATYYCQQGYMVPIGFGGGTKVEIK
B7: G10xA5 (antibody, V domains shown)
VH: B1 VH with F27Y, S28T, S30F, T31P, Y32P, A33P, M34V, S35T, A107Q, V108Y
VL: B6 VL
B8: LxC1-G10 (antibody, V domains shown)
VH: B1 VH
VL: B6 VL
notes: also called light chain engineered candidate
B9: humanized antibody hN2Y (antibody, V domains shown)
VH: B1 VH
VL: B1 VL with G51A, S52N, Y53T, R55E, W56A, R93S, V94T, I96L, R97T

Target: SARS-CoV-2 spike protein trimer, Alpha (B.1.1.7) variant (SARS-CoV-2, UniProt P0DTC2 16-1213)
Test: ELISA, purified IgG

Row | Binder | binding result
1 | B1 | binds
2 | B2 | binds
3 | B3 | binds
4 | B4 | binds
5 | B5 | binds

Target: SARS-CoV-2 spike protein trimer, Gamma (P.1) variant (SARS-CoV-2, UniProt P0DTC2 16-1213)
Test: ELISA, purified IgG

Row | Binder | binding result
6 | B1 | binds
7 | B2 | binds
8 | B3 | binds
9 | B4 | binds
10 | B5 | binds

Target: T1, SARS-CoV-2 spike protein trimer, Beta (B.1.351) variant (SARS-CoV-2, UniProt P0DTC2 16-1213)
Test: ELISA, purified IgG

Row | Binder | binding result
11 | B1 | binds
12 | B2 | binds
13 | B3 | binds
14 | B4 | binds
15 | B5 | binds

Target: SARS-CoV-2 spike protein trimer, Epsilon (B.1.429) variant (SARS-CoV-2, UniProt P0DTC2 16-1213)
Test: ELISA, purified IgG

Row | Binder | binding result
16 | B1 | binds
17 | B2 | binds
18 | B3 | binds
19 | B4 | binds
20 | B5 | binds

Target: SARS-CoV-2 spike protein trimer, Kappa (B.1.617.1) variant (SARS-CoV-2, UniProt P0DTC2 16-1213)
Test: ELISA, purified IgG

Row | Binder | binding result
21 | B1 | binds
22 | B2 | binds
23 | B3 | binds
24 | B4 | binds
25 | B5 | binds

Target: T2, SARS-CoV-2 spike protein trimer, Omicron (B.1.1.529) variant (SARS-CoV-2, UniProt P0DTC2 16-1213)
Test: BLI (Octet), biotinylated spike trimer on streptavidin sensor, IgG titrated

Row | Binder | fold improved affinity compared to LxC1-G10
26 | B6 | 1.2 fold
27 | B7 | 15 fold

Target: T1, SARS-CoV-2 spike protein trimer, Beta …
Test: as above

Row | Binder | fold increased affinity compared to hN2Y
28 | B8 | > 100 fold

Target: SARS-CoV-2 spike protein trimer, Delta (B.1.617.2) variant (SARS-CoV-2, UniProt P0DTC2 16-1213)
Test: as above

Row | Binder | fold improved affinity compared to LxC1-G10
29 | B6 | > 20 fold
30 | B7 | > 20 fold

Target: T2, SARS-CoV-2 spike protein trimer, …
Test: not given

Row | Binder | Kd | fold improvement in IC50 compared to hN2Y | IC50
31 | B8 | 0.051 nM | > 13 fold | –
32 | B9 | – | – | 0.26 µg/mL
